Target: T1, AP2-G D1 (Plasmodium falciparum, UniProt Q8I5I9 2123-2245)
T1 sequence: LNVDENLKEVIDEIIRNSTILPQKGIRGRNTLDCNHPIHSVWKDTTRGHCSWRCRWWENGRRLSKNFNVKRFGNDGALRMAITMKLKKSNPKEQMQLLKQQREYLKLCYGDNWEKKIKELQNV
Assay: gcPBM; about 25 ug protein; PBS, 1% milk, 0.2 mg/ml BSA, salmon testes DNA, 0.03% Triton X-100
Conditions: tags: N-terminal GST (pGEX-4T-1), kept; label: surface-attached array probe

B1: XGTACX_negctrl_site572 (dsDNA)
DNA 1: TTAGGAAGCTCACAAAATAAAGTGAAAAGAAGAAAA
DNA 2: TTTTCTTCTTTTCACTTTATTTTGTGAGCTTCCTAA
binding signal: 9.76 ln median PBM intensity, better of two orientations

B2: XGTACX_negctrl_site181 (dsDNA)
DNA 1: ATTCGTAGTTTTATGAATTAATATAATAAAAATTAA
DNA 2: TTAATTTTTATTATATTAATTCATAAAACTACGAAT
binding signal: 9.77 ln median PBM intensity, better of two orientations

B3: XGTACX_negctrl_site421 (dsDNA)
DNA 1: TATAAGAGAAGAAGAAAAAAAAGGTTTCTATAGAAA
DNA 2: TTTCTATAGAAACCTTTTTTTTCTTCTTCTCTTATA
binding signal: 9.78 ln median PBM intensity, better of two orientations

B4: XGTACX_negctrl_site188 (dsDNA)
DNA 1: AAAGTATAACGGATACCATTTATGTGATTATTTTGT
DNA 2: ACAAAATAATCACATAAATGGTATCCGTTATACTTT
binding signal: 9.78 ln median PBM intensity, better of two orientations

B5: XGTACX_negctrl_site200 (dsDNA)
DNA 1: GTCCTTATGGATGATAAATTATTTTAAATATTCTAT
DNA 2: ATAGAATATTTAAAATAATTTATCATCCATAAGGAC
binding signal: 9.79 ln median PBM intensity, better of two orientations

B6: XGTACX_negctrl_site546 (dsDNA)
DNA 1: AGCCCTTTTTTTTTTTAGAATATTGCATAATTATAT
DNA 2: ATATAATTATGCAATATTCTAAAAAAAAAAAGGGCT
binding signal: 9.79 ln median PBM intensity, better of two orientations

B7: XGTACX_negctrl_site507 (dsDNA)
DNA 1: ATAAAAAATAAATATATACATACATACATACATATA
DNA 2: TATATGTATGTATGTATGTATATATTTATTTTTTAT
binding signal: 9.8 ln median PBM intensity, better of two orientations

B8: XGTACX_negctrl_site190 (dsDNA)
DNA 1: AATAGAAACATTTTACATGTATATATAATTTTTTTT
DNA 2: AAAAAAAATTATATATACATGTAAAATGTTTCTATT
binding signal: 9.8 ln median PBM intensity, better of two orientations

B9: XGTACX_negctrl_site224 (dsDNA)
DNA 1: TTGTTTCTTAAATTATTTATTTTATATTAAAAAAAA
DNA 2: TTTTTTTTAATATAAAATAAATAATTTAAGAAACAA
binding signal: 9.8 ln median PBM intensity, better of two orientations

B10: XGTACX_negctrl_site66 (dsDNA)
DNA 1: TTTTGAGAAAAAATAAAATAATAAATAAAAATACAT
DNA 2: ATGTATTTTTATTTATTATTTTATTTTTTCTCAAAA
binding signal: 9.8 ln median PBM intensity, better of two orientations

B11: XGTACX_negctrl_site331 (dsDNA)
DNA 1: AAGGAATAAAATTTAGAAGACAATTTTATTTCAGTA
DNA 2: TACTGAAATAAAATTGTCTTCTAAATTTTATTCCTT
binding signal: 9.81 ln median PBM intensity, better of two orientations

B12: XGTACX_negctrl_site448 (dsDNA)
DNA 1: ATATAAGATTACAAAAATTATGTGTAAATATTTAAT
DNA 2: ATTAAATATTTACACATAATTTTTGTAATCTTATAT
binding signal: 9.81 ln median PBM intensity, better of two orientations

B13: XGTACX_negctrl_site614 (dsDNA)
DNA 1: TAATTCGCAAAAGAAAGAAATTAAGAAAAAGAAAAA
DNA 2: TTTTTCTTTTTCTTAATTTCTTTCTTTTGCGAATTA
binding signal: 9.81 ln median PBM intensity, better of two orientations

B14: XGTACX_negctrl_site279 (dsDNA)
DNA 1: TTTTTACTATAAGGGGAAAAAAAAAAAAATAATATA
DNA 2: TATATTATTTTTTTTTTTTTCCCCTTATAGTAAAAA
binding signal: 9.81 ln median PBM intensity, better of two orientations

B15: XGTACX_negctrl_site277 (dsDNA)
DNA 1: TTATTTTACTTTTATGCAACTAAAAATATTGCTATA
DNA 2: TATAGCAATATTTTTAGTTGCATAAAAGTAAAATAA
binding signal: 9.82 ln median PBM intensity, better of two orientations

B16: XGTACX_negctrl_site149 (dsDNA)
DNA 1: AGAATTTAGAAACAATGTTGTATATGTAATACCTTT
DNA 2: AAAGGTATTACATATACAACATTGTTTCTAAATTCT
binding signal: 9.82 ln median PBM intensity, better of two orientations

B17: XGTACX_negctrl_site595 (dsDNA)
DNA 1: TTATATTATGTTCAATCAAAAATTATTTTTAAAAAA
DNA 2: TTTTTTAAAAATAATTTTTGATTGAACATAATATAA
binding signal: 9.82 ln median PBM intensity, better of two orientations

B18: XGTACX_negctrl_site283 (dsDNA)
DNA 1: TACTAAAATATATATATGCAACATGAGATATTCAAC
DNA 2: GTTGAATATCTCATGTTGCATATATATATTTTAGTA
binding signal: 9.82 ln median PBM intensity, better of two orientations

B19: XGTACX_negctrl_site160 (dsDNA)
DNA 1: ACATGCCAAAATCTAATACAATAATAATAAAAAAAA
DNA 2: TTTTTTTTATTATTATTGTATTAGATTTTGGCATGT
binding signal: 9.83 ln median PBM intensity, better of two orientations

B20: XGTACX_negctrl_site88 (dsDNA)
DNA 1: AAGGGGAGAAAAATAAACGAAATATATACATACATA
DNA 2: TATGTATGTATATATTTCGTTTATTTTTCTCCCCTT
binding signal: 9.83 ln median PBM intensity, better of two orientations

B21: XGTACX_negctrl_site524 (dsDNA)
DNA 1: AAAACTATTAATGCAAAAAATAAAATATAATAATAA
DNA 2: TTATTATTATATTTTATTTTTTGCATTAATAGTTTT
binding signal: 9.83 ln median PBM intensity, better of two orientations

B22: XGTACX_negctrl_site501 (dsDNA)
DNA 1: AAATTATAAAAAAAAAAAAAAAAAAAAAAAAAAAAA
DNA 2: TTTTTTTTTTTTTTTTTTTTTTTTTTTTTATAATTT
binding signal: 9.83 ln median PBM intensity, better of two orientations

B23: XGTACX_negctrl_site14 (dsDNA)
DNA 1: AAATAAAAAGAAAAGAAAAAGAAAATAAAAAGAGAA
DNA 2: TTCTCTTTTTATTTTCTTTTTCTTTTCTTTTTATTT
binding signal: 9.83 ln median PBM intensity, better of two orientations

B24: XGTACX_negctrl_site39 (dsDNA)
DNA 1: TTTTTAATTATCTTTTCCCATGGTTTCTCCGTTTTT
DNA 2: AAAAACGGAGAAACCATGGGAAAAGATAATTAAAAA
binding signal: 9.84 ln median PBM intensity, better of two orientations

B25: XGTACX_negctrl_site26 (dsDNA)
DNA 1: TATAATTTTTTTGAATTATATATATATATATATAAT
DNA 2: ATTATATATATATATATATAATTCAAAAAAATTATA
binding signal: 9.84 ln median PBM intensity, better of two orientations

B26: XGTACX_negctrl_site183 (dsDNA)
DNA 1: TATTTTTCTTTTTAAAAATATATCACATGAACATTA
DNA 2: TAATGTTCATGTGATATATTTTTAAAAAGAAAAATA
binding signal: 9.84 ln median PBM intensity, better of two orientations

B27: XGTACX_negctrl_site244 (dsDNA)
DNA 1: AAAAATATGAAGACACAATATAGAAATAAAAATATA
DNA 2: TATATTTTTATTTCTATATTGTGTCTTCATATTTTT
binding signal: 9.84 ln median PBM intensity, better of two orientations

B28: XGTACX_negctrl_site600 (dsDNA)
DNA 1: TTGAAATATACGTAAGTAAATTTCATTTGGTTGTGT
DNA 2: ACACAACCAAATGAAATTTACTTACGTATATTTCAA
binding signal: 9.84 ln median PBM intensity, better of two orientations

B29: XGTACX_negctrl_site35 (dsDNA)
DNA 1: TTTTGACTAATATAATATGTTAAGAATTAATAAATA
DNA 2: TATTTATTAATTCTTAACATATTATATTAGTCAAAA
binding signal: 9.84 ln median PBM intensity, better of two orientations

B30: XGTACX_negctrl_site369 (dsDNA)
DNA 1: TTTTTTTTTAATAAAATTATAATAAATATGAAATTA
DNA 2: TAATTTCATATTTATTATAATTTTATTAAAAAAAAA
binding signal: 9.84 ln median PBM intensity, better of two orientations

B31: XGTACX_negctrl_site451 (dsDNA)
DNA 1: AACAAATAAAAAAAAATAAAAATAAAAATAAAAAAA
DNA 2: TTTTTTTATTTTTATTTTTATTTTTTTTTATTTGTT
binding signal: 9.85 ln median PBM intensity, better of two orientations

B32: XGTACX_negctrl_site343 (dsDNA)
DNA 1: AATAAATAAAAAAAAAAAAAAAAAAAAAAAAAAAAA
DNA 2: TTTTTTTTTTTTTTTTTTTTTTTTTTTTTATTTATT
binding signal: 9.85 ln median PBM intensity, better of two orientations

B33: XGTACX_negctrl_site317 (dsDNA)
DNA 1: TTATATTCTTTTCTCTTTCTACTTTTTTTTTTTTTT
DNA 2: AAAAAAAAAAAAAAGTAGAAAGAGAAAAGAATATAA
binding signal: 9.85 ln median PBM intensity, better of two orientations

B34: XGTACX_negctrl_site291 (dsDNA)
DNA 1: TTTTTTATATTTAAACTTCACATGGTTTTCATTTAT
DNA 2: ATAAATGAAAACCATGTGAAGTTTAAATATAAAAAA
binding signal: 9.85 ln median PBM intensity, better of two orientations

B35: XGTACX_negctrl_site385 (dsDNA)
DNA 1: TACTTCTCATTTGTTGTTGTATTTTAGGCATACCCT
DNA 2: AGGGTATGCCTAAAATACAACAACAAATGAGAAGTA
binding signal: 9.85 ln median PBM intensity, better of two orientations

B36: XGTACX_negctrl_site493 (dsDNA)
DNA 1: CATATATAAATATAAATATATATATATATATATATG
DNA 2: CATATATATATATATATATATTTATATTTATATATG
binding signal: 9.85 ln median PBM intensity, better of two orientations

B37: XGTACX_negctrl_site591 (dsDNA)
DNA 1: TTTTTATATAACCTTCTTAATTCTTTTTTTTTTTTT
DNA 2: AAAAAAAAAAAAAGAATTAAGAAGGTTATATAAAAA
binding signal: 9.85 ln median PBM intensity, better of two orientations

B38: XGTACX_negctrl_site191 (dsDNA)
DNA 1: TTTTTAAAAAATAAGAAAAAATAAATATATTACAAA
DNA 2: TTTGTAATATATTTATTTTTTCTTATTTTTTAAAAA
binding signal: 9.86 ln median PBM intensity, better of two orientations

B39: XGTACX_negctrl_site59 (dsDNA)
DNA 1: AATATTACGTGTTTGGTATTTTTCGATGTTGGCAGG
DNA 2: CCTGCCAACATCGAAAAATACCAAACACGTAATATT
binding signal: 9.87 ln median PBM intensity, better of two orientations

B40: XGTACX_negctrl_site580 (dsDNA)
DNA 1: ATACAAATTAAGCCTCAAGTTCTTTTTTTTAACATA
DNA 2: TATGTTAAAAAAAAGAACTTGAGGCTTAATTTGTAT
binding signal: 9.88 ln median PBM intensity, better of two orientations

B41: XGTACX_negctrl_site604 (dsDNA)
DNA 1: ATAAATCGATAAAATATATGCTACATGAATAAATAA
DNA 2: TTATTTATTCATGTAGCATATATTTTATCGATTTAT
binding signal: 9.88 ln median PBM intensity, better of two orientations

B42: XGTACX_negctrl_site541 (dsDNA)
DNA 1: TTGTCAAAAATTACACACATAAATGAATAAATAAAT
DNA 2: ATTTATTTATTCATTTATGTGTGTAATTTTTGACAA
binding signal: 9.88 ln median PBM intensity, better of two orientations

B43: XGTACX_negctrl_site394 (dsDNA)
DNA 1: AGGTGAAAAATATATAATAATGTAACAAAAAAAAAT
DNA 2: ATTTTTTTTTGTTACATTATTATATATTTTTCACCT
binding signal: 9.88 ln median PBM intensity, better of two orientations

Reference: PMC11417369, “DNA sequence and chromatin differentiate sequence-specific transcription factor binding in the human malaria parasite Plasmodium falciparum”
